The supplement of paper PMC10567573

B1: FAM46D (parent)
chain: FQEAMTHLQHKLICTRKPEEIRGG
B2: LCOR (parent)
chain: YKVKERLGTLKNPPKKKMKLMSG

Variants of: B1
Experiment: protein stability index of a GFP-peptide fusion (GPS, HEK-293T) (PSI 1-6); higher = more stable
Settings: c terminus: a fixed tail appended
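Further: lentivirally expressed fusions sorted by FACS into six bins by GFP to DsRed ratio, PSI derived from sequencing read proportions per bin multiplied by bin number.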

Protein stability index of substitutions, site by site:
L8: A 3.91; S 3.62; F 2.42; N 3.76; I 2.88; Q 3.68; V 2.07; C 3.23; M 3.24; Y 2.34; G 3.09; K 2.29; R 3.31; D 4.31; T 3.35; E 3.69; H 3.57; W 1.89; P 2.99
T6: I 2.15; D 3.41; P 3.04; W 1.49; M 1.66; R 2.69; Q 2.13; V 2.86; A 2; S 3.2; E 3.38; Y 1.54; F 2.11; H 2.22; K 1.86; N 2.11; L 2.04
K11: A 2.54; I 2.03; H 2.44; C 2.89; E 3.88; T 2.72; S 3.15; R 2.83; W 1.58; M 1.57; G 2.38; Y 1.66; L 2.79; P 2.44; V 1.86; F 2.16; N 2.17; Q 2.41; D 2.88
Q2: R 4.08; I 2.01; M 2.28; W 1.67; F 1.6; K 3.46; Y 2.19; L 2.32; S 2.74; C 1.76; N 3.38; P 2.53; E 4.25; D 4.05; V 1.56; A 2.91; T 2.1; H 2.02; G 3.01
L12: N 4.18; I 2.78; R 2.71; D 2.98; G 2.72; Q 3.87; A 3.49; C 2.84; F 2.38; H 3.44; P 2.8; K 2.9; M 3.84; E 3.27
H7: E 3.86; P 3.4; K 2.61; T 2.77; N 3.19; G 2.71; R 2.66; Q 2.93; Y 3.71; A 2.44; W 1.95; V 2.48; I 1.59; M 1.11; L 1.67; C 2.85; D 3.54; S 3.3
M5: W 2.1; I 2.22; H 3.79; E 4.43; K 2.94; D 3.44; Y 2.16; R 3.13; V 2.97; T 3.12; N 3.53; S 3.67; P 3.37; F 1.93; G 3.54; A 3.21; L 1.64; C 3.35
H10: V 1.92; R 2.71; C 2.72; S 2.5; F 1.73; E 3.79; P 3.16; T 3.52; M 1.44; L 2.24; D 3.14; G 2.67; N 2.93; Q 3.05; K 2.94; Y 2.11
A4: E 3.28; T 3.29; R 2.75; N 3.36; F 1.82; K 3.51; C 2.61; H 2.95; W 1.58; S 2.99; Q 2.98; I 2.42; V 2.63; D 2.8; M 3.38; G 2.74; P 2.62; Y 2
F1: M 3.67; D 4.81; E 5.26; R 3.82; N 4.29; P 4.01; C 3.98; Y 3.2; A 4.16; K 3.61; H 4.3; V 4.64; L 2.93; G 4.4; I 3.29; W 3.28; Q 3.85; S 3.49; T 3.96
E3: R 1.82; P 2.8; T 2.54; N 2.55; F 1.48; G 2.98; K 2.17; S 1.91; D 2.17; L 1.9; Q 2.52; H 2.21; I 2.22; V 2.08; A 1.82; Y 2.3; C 1.64; M 1.62
Q9: N 1.79; C 1.89; G 2.09; H 2.67; Y 2.3; F 2.61; E 3.36; D 2.89; A 2.25; R 2.7; K 2.38; W 1.16; T 2.6; M 2.21

Variants of: B2
Experiment: as above
Settings: c terminus: native

Protein stability index, by site and new letter:
S22: A 2.85; V 2.09; D 3.1; T 2.42; P 2.45; Y 2.65; I 2.45; M 1.61; K 3.02; H 2.95; E 2.58; C 2.14; N 2.11; L 2.19; F 2.44
K17: A 2.41; Q 2.96; P 2.59; T 1.76; H 2.02; S 1.42; E 2.63; W 1.83; N 1.83; G 1.43; V 1.68; L 1.34; R 2.22; I 2.58; D 1.83; M 1.94; F 2.02; Y 2.25
G23: K 3.41; M 3.85; Q 2.78; I 2.4; S 3; P 3.18; Y 2.57; N 2.43; A 2.29; W 2.19; V 2.11; T 3; R 2.88; C 2.57; D 4.01; E 3.19; L 2.75; H 3.01; F 2.15
M21: L 3.01; N 5.95; H 3.33; S 1.45; Y 2.34; P 2.56; G 2.91; I 1.92; T 1.76; F 2.78; W 2.82; C 4.02
L20: T 2.32; M 1.55; E 3.99; S 3.02; Q 3.83; F 2.55; I 2.9; K 3.8; D 3.66; N 2.43; Y 2.18; V 2.81; C 1.8; G 3.74; W 2.95; P 3.94; H 3.95; A 3.14
M18: S 1.52; E 2.24; N 2.06; H 2.03; L 1.81; R 2.2; A 2.49; T 1.36; C 1.82; P 2.03; F 1.98; I 2.02; G 2.59; V 2; W 1.36; Y 2.43; D 3; Q 2.23
K19: V 2.77; D 2.64; I 3.48; C 2.15; H 2.51; G 1.34; A 3.4; T 2.38; Q 3.03; W 2.52; E 2.5; N 2.96; P 2.26
K16: Y 2.98; R 2.55; T 1.78; P 1.93; V 1.87; W 2.45; L 2.34; N 1.76; S 1.46; Q 2.17; I 1.39; M 1.49
